Data taken from article PMC4703059.

Target: Full-length wt Lst7 (K. lactis) with C-terminal Strep tag (Kluyveromyces lactis)
Experiment: AUC + SEC-MALS; purified K. lactis Lst7/Lst4 complex; AUC sedimentation velocity with interference data at 0.15 mg/ml, SEDFIT; SEC-MALS of 50 µg in 50 µl on TSKgel SuperSW2000 in PBS, 0.35 ml/min

stoichiometry N: 1
B1: Engineered Lst4 (K. lactis) aa58-714 with a deletion of the intra-DENN loop (aa 388-534) (domain or fragment)
chain: NDRLHNGGFRLIISQELGHVTSRNNYQVVLDHSSVNFHTGAHIPLNELKDYIFGSSIRTIDYSASSDKIKVVKSANIVLFTRIFYLNEKSTLRIAISCCVTDDVLPVLTECWPHISSFLDQCENTLLKYLAKNDTQFLPHDWKARNCIEVAAVLQTFQRKIIPLLSGYSDTPRLFLYPMDSIPYIKTWVKYVTNWIELKDGPRVRFLPILLAKLRYDFASLLKENSNTRIVILTGNMNVANRLIFILTAFLGPHFRGTLHKSINSQGCPSPAGRKMSNMSGASDFPFELKPSNSSITETNKGWEIPRIKRDPTFSVTSVSSDETGVQTFILNDAFADLVIDPPSYDTTVSNEKHGEIVEVNMASPRKQRNNQNQELLRRFTSYTPHYNQWFQLQACQITTESENKVIHSMKRDLTYADQDPCKKDKSTSTLLISLRSREIKQVTIVRDTNNRFIQRTKKILQNGKVGPVSRAMLSGIETTDQHLKKLMECNNDNEALVSLFNDIVTCAST
